# ± gives the standard deviation of the averaged measurements.
# Tested on: Saccharomyces cerevisiae
# Assay: protein stability index of tFT-peptide fusion (C-terminal peptide) (PSI (0-1 scale)); higher = more stable (slower turnover)
# Settings: genetic background: wild type; temperature: 30 C
# 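Note: PSI is a weighted mean of sequencing reads over stability bins, variants kept only with over 10 reads, mCherry proximal and sfGFP distal, peptide attached via GGGS linker.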
row,Sequence,protein stability index
1,LRSPPPVSHRLP,0.822 ± 0.048
2,RCGLSGGRPPVL,0.6475 ± 0.0016
3,MGKSLCLFTQPI,0.668 ± 0.09
4,VHRRRVSVGGGV,0.69044 ± 0.00032
5,VSYLLPPPPPPP,0.682 ± 0.046
6,PLLPPLPPRPPP,0.633 ± 0.03
7,PPPPAPPAPPLR,0.732 ± 0.056
8,LHLGHAGQACPA,0.6277 ± 0.0022
9,GVRDGGTRGSEG,0.7012 ± 0.0055
10,AVWNWEEVWLSG,0.654 ± 0.023
11,ARSGDSGQPPSQ,0.689 ± 0.05
12,PPLAAFLPFLAL,0.694 ± 0.0011
13,RGLYPLKVDCQW,0.753 ± 0.036
14,SFFFLVPFSVFL,0.586 ± 0.1
15,RTLSSFSPGYLF,0.8548 ± 0.0033
16,WVPPPPYSPFSL,0.695 ± 0.027
17,FMLCCFPCWCVL,0.6127 ± 0.0041
18,RRPPRVYLQLSI,0.67 ± 0.066
19,PPSLPPLSPPLA,0.736 ± 0.02
20,GAREHGSNDYGP,0.635 ± 0.036
21,PAPAPPPSPLPP,0.655 ± 0.028
22,GGSESRGSDRWE,0.633 ± 0.038
23,SLGWVRDRICSD,0.75 ± 0.17
24,TVSAPLFFPLNW,0.663 ± 0.034
25,VRYGQRGTFGLL,0.6901 ± 0.0019
26,YIPPGNTTVPSC,0.694 ± 0.038

row,Sequence,protein stability index
1,LPPGIPLRSSPP,0.683 ± 0.022
2,EAVVWGTLLCGG,0.694 ± 0.01
3,PPPDPPLSPPPP,0.676 ± 0.087
4,RHMLSDFIDACS,0.72 ± 0.12
5,CGWAWGWRESKM,0.723 ± 0.1
6,NKRCRNITIQRA,0.73379 ± 0.00047
7,ARVRAREGGDRG,0.624 ± 0.0076
8,QSRHCHPTPKRL,0.65 ± 0.031
9,PPPLPPPSLVSF,0.6741 ± 0.0051
10,CTCGDFHRAWVS,0.667 ± 0.01
11,ACDVPSERAVSG,0.628 ± 0.024
12,RVSLREVKAEKN,0.682 ± 0.057
13,NWRAAGQSGPES,0.67 ± 0.012
14,GRTDRPTDINSN,0.677 ± 0.052
15,GCLCAGSMVGDL,0.666 ± 0.015
16,SDRLLYLGNYDV,0.773 ± 0.0011
17,LLSAVVDHTHLQ,0.664 ± 0.07
18,YPPYPSHSSLHT,0.6987 ± 0.0062
19,TSQHLQNHYKKI,0.701 ± 0.0035
20,TLGGEITYKVKT,0.684 ± 0.034
21,KYPRPNSYFVPI,0.717 ± 0.023
22,LGGVRWNPGCRG,0.661 ± 0.047
23,RKNQNAWMPALQ,0.702 ± 0.1
24,RKKENKIANRKI,0.6893 ± 0.00094
25,KVRDTFRDFGLM,0.673 ± 0.063
26,CPSAPHNTLSTG,0.68 ± 0.052

row,Sequence,protein stability index
1,TRLVRQLNNNLE,0.667 ± 0.013
2,RWCRLGHRWRVV,0.563 ± 0.054
3,QPVGAAQWGSQS,0.715 ± 0.028
4,QLGGLHIPHPLR,0.899 ± 0.028
5,MTIMPSPLGVVH,0.514 ± 0.055
6,HLPWTGTPHATV,0.737 ± 0.029
7,YRFFGGYWETGW,0.744 ± 0.033
8,PPAPPHPPPFPP,0.589 ± 0.052
9,YVARRRPHPTGP,0.778 ± 0.17
10,LLPVFFPCFPLP,0.696 ± 0.069
11,ARIRDSPVIKTV,0.672 ± 0.019
12,LPSPSATPPRPP,0.634 ± 0.034
13,IVSGVSVHLGVG,0.6115 ± 0.0029
14,RNTKGRIKKKKE,0.728 ± 0.039
15,MIRVRGRQKIEG,0.724 ± 0.13
16,ASEHRPPRPHER,0.683 ± 0.071
17,LGTGKSGLCVWE,0.665 ± 0.012
18,PPPSAPLPPLPL,0.714 ± 0.019
19,DKMLDIETNNKH,0.654 ± 0.033
20,DSVGVLVPRGFR,0.766 ± 0.045
21,KKKTIKKTIKNQ,0.702 ± 0.031
22,AFPHRLTRGYDQ,0.666 ± 0.038
23,CLSHSIYYSFSF,0.691 ± 0.086
24,PPPPRPPRPPPA,0.671 ± 0.12
25,PYPVRSRPPAPA,0.6726 ± 0.0039
26,PLASLPALHFSL,0.678 ± 0.025

row,Sequence,protein stability index
1,QRGGEGWILGGV,0.687 ± 0.026
2,PPCTVHPLPRLP,0.727 ± 0.02
3,KRKEDSILVISC,0.662 ± 0.029
4,VGAWGCGMWVVG,0.645 ± 0.024
5,FVVVLSPLVILQ,0.5344 ± 0.0049
6,RVLGGGVLGVLV,0.711 ± 0.0099
7,HHSLLLPPPPPP,0.673 ± 0.019
8,CCLSGGFFLFGL,0.622 ± 0.062
9,NGSIENIAKRKK,0.639 ± 0.077
10,PSLIRTPTTPSP,0.69 ± 0.018
11,PPFDSAHPTPAP,0.739 ± 0.019
12,RQLVNKKIKEKK,0.7258 ± 0.0051
13,PALCGGFFLVGV,0.636 ± 0.019
14,FGCGVADLERCL,0.686 ± 0.013
15,SPRSPPSPPPRP,0.746 ± 0.045
16,TRSRAQTEAHRR,0.669 ± 0.032
17,GGGGGECCFLEG,0.753 ± 0.081
18,SARGRTRTADPS,0.677 ± 0.048
19,LPPRIPRPDVSF,0.72 ± 0.0075
20,CPFPPPPCPPPL,0.665 ± 0.02
21,QKRKQKKIIQRM,0.652 ± 0.013
22,PRNPLFSPPLPD,0.752 ± 0.0099
23,YGGLFFLVSLPP,0.566 ± 0.0082
